According to patent US9765332B2, “Oligonucleotides and methods for inhibiting or reducing bacterial biofilms” (INSERM (INSTITUT NATIONAL DE LA SANTE ET DE LA RECHERCHE …):
Substitutions are numbered along the chain they refer to. Entries after “also recorded” stand apart in the source; their conditions may differ.

What was measured:
[1] = test system: E. coli; assay: E. coli biofilm formation in the presence of PNAs; type: cell-based; settings: 20 μM of PNAs
Protocol: The inventors used peptide nucleic acids (PNAs) that hybridize to the CsgD mRNA sequence ranging from nucleic acid at position 128 to nucleic acid at position 151 in SEQ ID NO: 9. In the presence of 20 μM of PNAs corresponding to RydC 1-2tot sequence (SEQ ID NO: 10), E. coli biofilm formation was reduced about 50%.

[2] = test system: E. coli; assay: E. coli growth in the presence of PNAs; type: cell-based
[3] = test system: csgD mRNA; assay: In vitro translation assays (PURESYSTEM); type: biochemical, Escherichia coli; settings: csgD mRNA503; for effect of adding Hfq on the translation regulation by the RydC mutant: 2-fold molar excess of Hfq
Protocol: In vitro translation of CsgD mRNA503 (2.5 pmols) using [^35S]-methionine was carried out with a PURESYSTEM (Cosmo Bio) following the manufacturer's instructions and as described previously (13). After RNA denaturation for 2 min at 85° C., chilling 2 min on ice, then renaturation for 5 min at 37° C. in TMN 1× buffer, a pre-complex between RydC and 10 pmol of Hfq was performed during 10 minutes at 37° C. To form the complex with the csgD mRNA, we again incubated for 10 min at 37° C. then translation assays were initiated by adding [^35S]-methionine and the PURESYSTEM classic II. Each reaction was denatured in a 1× Laemmli buffer at 95° C. for 5 min, loaded onto a 16% Tris-glycine gel, and visualized on a PhosphorImager.

[4] = test system: csgD mRNA215; assay: Ribosome toeprint assays; type: biochemical, Escherichia coli; settings: RydC without Hfq (elevated amounts); Hfq without RydC (low amounts)
Protocol: (§1) After denaturation followed by renaturation at room temperature, annealing mixes containing 0.2 pmol csgD mRNA and 1 pmol of labelled primer were incubated for 15 min with or without various concentrations of RydC or Hfq. fMet-tRNA^fMet was then added for 5 min. Reverse transcription was started by adding 2 μL of AMV RT (NE Biolabs) and dNTPs for 15 min, then stopped by adding 10 μL of Buffer II (Ambion). The cDNAs and sequencing reactions were run on polyacrylamide gels, and signals detected using a PhosphorImager. Gel retardation assays are performed as previously described (4). 0.5 pmol of labelled RydC were incubated for 10 min at 37° C. with various concentrations (0-500 pmols) of unlabelled csgD mRNA215, csgD mRNAΔ5′UTR, or csgD mRNA100 in 1×TMN buffer (20 mM Tris-acetate pH 7.6, 100 mM sodium acetate, and 5 mM magnesium acetate). Samples were loaded onto a native 5% acrylamide gel and separated with 0.5×TBE at 4° C. Gels are dried and visualized (PhosphorImager).

[5] = test system: csgD mRNA; assay: Native gel retardation assays; type: binding, Escherichia coli
Excerpt: To generate the various csgD mRNA fragments as well as the sRNA's RydC, DNA templates containing a T7 promoter sequence were generated by PCR using the appropriate primers (Table S2) followed by in vitro transcription using a MEGAscript kit (Ambion) per the manufacturer's protocol. Transcription products were then electrophoresed onto a 6% PAGE containing 8M urea, excised from the gel, then […]. When necessary, purified RNA was dephosphorylated using CIP (New England Biolabs), 5′end-labelled with ATP γ-^32P (PerkinElmer) and T4 polynucleotide kinase (NE Biolabs), then treated with gel purification, passive elution, and ethanol precipitation.
as §1

[6] = test system: Salmonella enterica (bongori); assay: Curli formation on Congo red plates; type: cell-based; settings: stimulated RydC expression, 48 hours at 28° C.
[7] = test system: Escherichia coli; assay: Microtiter dish biofilm assay (crystal violet), RydC expression from pUC18-rydC; type: cell-based; settings: increased RydC expression (pUC18-rydC) vs isogenic strain; 48 hours incubation at 28° C.
[8] = test system: Escherichia coli; assay: Curli formation on Congo red plates; type: cell-based; settings: stimulated RydC expression, 48 hours at 28° C.
[9] = test system: csgBA and csgA mRNA; assay: Northern blot of csgA and csgBA mRNAs during curli formation; type: cell-based, Escherichia coli; settings: high levels of RydC; after 10 h incubation
[10] = test system: Salmonella enterica (bongori); assay: Microtiter dish biofilm assay (crystal violet), RydC expression from pUC18-rydC; type: cell-based; settings: increased RydC expression (pUC18-rydC) vs isogenic strain; 48 hours incubation at 28° C.
[11] = test system: csgD mRNA; assay: Northern blot of csgD mRNA during curli formation; type: cell-based, Escherichia coli; settings: induced RydC expression; throughout curli synthesis
[12] = test system: CsgA protein; settings: stimulated RydC expression; YESCA plates, 0-48 hours
Protocol: E. coli K-12 MG1655Z1, S. sonnei and S. enterica strains and their derivatives were used (Table S1). RydC gene disruption and overexpression in E. coli cells were done as previously described (4). The biofilm assays were performed in 96-well polystyrene plates, as previously described (18). E. coli, S. enterica, and S. sonnei cells were grown aerobically under static conditions at 28° C. in half-diluted M9 media supplemented with a 0.4% glucose carbon source. After 48 h growth, planktonic cells were discarded and kept for growth evaluation at OD600 nm. Each well was washed twice with PBS and put into a ‘swimming pool’, pooled with the initial supernatant. Biofilm was developed in plates then dyed with crystal violet for 15 min at room temperature. The biofilm was recovered through application of an 80% absolute ethanol and 20% acetone solution and by pipetting up and down. After 2 further washes in ‘ethanol/acetone’, the number of surface-attached bacteria was estimated from the optical density at 590 nm and divided by the evaluation of growth at 600 nm. Curli expression was monitored for 48 h at 28° C. on Congo red plates (1% Casamino acids, 0.1% yeast extract, 20 μg ml^−1 Congo red and 10 μg ml^−1 Coomassie Brilliant Blue G). […]

[13] = test system: CsgB protein; assay: Western blot with anti-CsgB antibodies during curli formation; type: cell-based, Escherichia coli; settings: promoted RydC expression; after 48 h
Excerpt: (§2) Membranes were blocked in TBS containing 5% milk.

[14] = test system: CsgD protein; assay: Western blot with anti-CsgD antibodies during curli formation; type: cell-based, Escherichia coli; settings: induction of RydC expression; all times during curli synthesis
Excerpt: as §2

[15] = biological target: Hfq (Escherichia coli, UniProt P0A6X3 P0A6X3:2-102); assay: EMSA; Hfq binds csgD mRNA215 in absence of RydC; no Kd given; settings: tags: His tag implied by Ni2+ column purification, expressed from pTE607 in BL21(DE3); chain copies: 6; nine helices H1-H9
Chain of Hfq (P0A6X3 2-102, one chain of several): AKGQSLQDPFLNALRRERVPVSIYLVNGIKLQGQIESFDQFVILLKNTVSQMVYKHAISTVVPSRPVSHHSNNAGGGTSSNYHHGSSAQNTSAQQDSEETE

## AACATGATGAAACCCCGC (all peptide nucleic acid (PNA)) [RydC 1-2tot]
[1]
  reduction of E. coli biofilm formation: about 50%
[2]
  effect on bacterial growth: reducing E. coli growth

## Hfq: purified E. coli Hfq RNA-binding protein (RNA chaperone)
[3]; relative to translation without RydC and Hfq
  CsgD translation remaining (down to): 40%
[4]
  ribosome loading / translation initiation on csgD mRNA215 (toeprint): prevent csgD mRNA translation initiation
[5]; absence of RydC
  interaction of Hfq with csgD mRNA215: interacts

B1: Escherichia coli RydC small RNA (nucleic acid, listed as Escherichia coli)
chain: CUUCCGAUGUAGACCCGUAUUCUUCGCCUGUACCACGGGUCGGUUUUAGUACAGGCGUUUUCU
modifications: expressed or natural sequence
notes: trans-encoded 64 nt sRNA of enteric bacteria folding as a pseudoknot; expressed from pUC18-rydC or transcribed in vitro
[6]
  curli formation: lowered curli formation
[7]
  reduction of biofilm formation: about one-third
[8]
  curli formation: lowered curli formation
[9]
  decrease of steady state levels of csgBA and csgA mRNA transcripts: half
[10]
  reduction of biofilm formation: one-half
[11]
  csgD mRNA steady state levels compared to isogenic strain: half
[3]; without Hfq
  reduction of CsgD translation: 20%
[12]
  reduction of the quantity of CsgA structural protein compared to wt: up to 2.5 times
[4]
  ribosome loading / translation initiation on csgD mRNA215 (toeprint): reduced ribosome loading onto the csgD mRNA in a concentration-dependent manner
[5]; 31 nts of 5′UTR including TIS plus 69 nts coding sequence
  complex formation with csgD mRNA100: duplex was detected; also recorded: lower than that with mRNA215
[5]; Hfq 1:1 molar ratio to RydC, one-to-one molar ratio with csgD mRNA215
  ternary complex formation RydC-Hfq-csgD mRNA215: nearly all of the RydC is in the complex
[5]; absence of Hfq
  molar excess of csgD mRNA215 versus RydC needed for about half of RydC in complex: 1000 -fold molar excess
[5]; first 115 nts of the csgD mRNA 5′-end, up to 250-fold excess
  complex formation with csgD mRNA115: unable to interact; also recorded: did not interact
[5]; mRNA lacking the 5′-UTR, starting at G+3
  complex formation with csgD mRNAΔ5′UTR: does not interact
[5]; no Hfq
  complex formation with csgD mRNA215: duplex was detected
[13]
  reduction of CsgB nucleator protein compared to isogenic strain: about two-fold
[14]
  reduction of CsgD protein compared to isogenic strain: up to five-fold

B2: csgD mRNA215 (ssRNA)
RNA: GAUGUAAUCCAUUAGUUUUAUAUUUUACCCAUUUAGGGCUGAUUUAUUACUACACACAGCAGUGCAACAUCUGUCAGUACUUCUGGUGCUUCUAUUUUAGAGGCAGCUGUCAGGUGUGCGAUCAAUAAAAAAAGCGGGGUUUCAUCAUGUUUAAUGAAGUCCAUAGUAUUCAUGGUCAUACAUUAUUGUUGAUCACUAAAUCUUCUUUGCAGGCG
[15]
  binding result: binds

B3: Escherichia coli RydC H2 (nucleic acid)
chain: CUUCCGAUGUACUGGGCAAUUCUUCGCCUGUACCACGGGUCGGUUUUAGUACAGGCGUUUUCUU
modifications: chemistry not given here
[3]
  effect of adding Hfq on the translation regulation by the RydC mutant: not beneficial

B4: Escherichia coli RydC H1 (nucleic acid)
chain: CUUCCGAUGUAGACCCGUAUUCUUCGCCUGUACCUGCCCAGGGUUUUAGUACAGGCGUUUUCUU
modifications: chemistry not given here
[3]; absence of Hfq
  effect on CsgD translation: increased efficacy and translation blockage

B5: Escherichia coli RydC H3 (nucleic acid)
chain: B3 chain with A35U, C36G, G37C, G38C, G39C, U40A, C41G
modifications: chemistry not given here
[3]
  activity for reducing CsgD translation relative to RydCH1: ten-fold
  activity in reducing csgD mRNA translation relative to RydC: only half as active as RydC
  effect of adding Hfq on the translation regulation by the RydC mutant: no effect
